Literature values in patent publication US6368617B1, “Dietary supplement” (Reliv' International, Inc., priority 2001, dated 2002).
Where two headings read alike, the source gives them in different places.

Row | Substance | half-life (serum) | half-life (circulating)
1 | IGF-1: growth-promoting metabolite of hGH, somatomedin C, commercially known as Insulin-like Growth Factor type 1 | about 20 hours | 
2 | Growth Hormone: endocrine hormone produced by the pituitary, also known as somatotropin |  | about 20 minutes
